Data published in US20210115124A1 (Genentech, published 2021).

T1: human VEGF (hVEGF) (human, UniProt P15692 181-395)
T1 construct: also called VEGF-A
T1 sequence: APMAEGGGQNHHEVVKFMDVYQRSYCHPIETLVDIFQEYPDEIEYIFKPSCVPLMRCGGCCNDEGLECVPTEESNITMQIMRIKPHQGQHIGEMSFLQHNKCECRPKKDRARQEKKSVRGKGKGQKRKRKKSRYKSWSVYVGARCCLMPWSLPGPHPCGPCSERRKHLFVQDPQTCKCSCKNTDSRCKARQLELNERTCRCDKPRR


Target: T1, human VEGF (hVEGF)
Test: SPR single-cycle;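 further: fab variants injected over hVEGF immobilized on a CM5 chip (Biacore T200), threefold dilution series from 0.02 to 50 nM, kinetics fitted with a 1:1 Langmuir model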
Text: To determine the binding affinity of selected Fab variants, SPR measurement with a BIACORE® T200 instrument was used. Briefly, series S sensor chip CM5 was activated with 1-ethyl-3-(3-dimethylaminopropyl) carbodiimide (EDC) and N-hydroxysuccinimide (NHS) reagents according to the supplier's instructions, and human VEGF (hVEGF) was coupled to achieve 50-80 response units (RU), then following by blocking un-reacted groups with 1M ethanolamine.
Three-fold serial dilutions of Fab in HBS-P buffer (0.01 M HEPES pH 7.4, 0.15 M NaCl, 0.005% surfactant P20) from low (0.02 nM) to high (50 nM) were injected (flow rate: 30 μl/min). The binding responses on hVEGF were corrected by subtracting of RU from a blank flow cell. The sensorgram was recorded and subject to reference and buffer subtraction before evaluating by BIACORE® T200 Evaluation Software (version 2.0). Association rates (kₒₙ) and dissociation rates (koff) were calculated using a simple one-to-one Langmuir binding model. The equilibrium dissociation constant (Kd) was calculated as the ratio koff/kₒₙ.

Fold change (relative to G6.31) [fold] | Kd [nM] | koff [s⁻¹] | kon [M⁻¹ s⁻¹] | Binder
1.6 | 1.08 | 0.000565 | 524000 | G6.31 HC-A60E (Fab, name in Kabat numbering, V domains shown, Fab) VH: EVQLVESGGGLVQPGGSLRLSCAASGFTISDYWIHWVRQAPGKGLEWVAGITPAGGYTYYEDSVKGRFTISADTSKNTAYLQMNSLRAEDTAVYYCARFVFFLPYAMDYWGQGTLVTVSS VL: DIQMTQSPSSLSASVGDRVTITCRASQDVSTAVAWYQQKPGKAPKLLIYSASFLYSGVPSRFSGSGSGTDFTLTISSLQPEDFATYYCQQGYGNPFTFGQGTKVEIK
2.4 | 0.715 | 0.000395 | 552000 | G6.31 HC-K64E (Fab, name in Kabat numbering, V domains shown, Fab) VH: EVQLVESGGGLVQPGGSLRLSCAASGFTISDYWIHWVRQAPGKGLEWVAGITPAGGYTYYADSVEGRFTISADTSKNTAYLQMNSLRAEDTAVYYCARFVFFLPYAMDYWGQGTLVTVSS VL: DIQMTQSPSSLSASVGDRVTITCRASQDVSTAVAWYQQKPGKAPKLLIYSASFLYSGVPSRFSGSGSGTDFTLTISSLQPEDFATYYCQQGYGNPFTFGQGTKVEIK
0.8 | 2.04 | 0.000444 | 217000 | G6.31 HC-K75E (Fab, name in Kabat numbering, V domains shown, Fab) VH: EVQLVESGGGLVQPGGSLRLSCAASGFTISDYWIHWVRQAPGKGLEWVAGITPAGGYTYYADSVKGRFTISADTSENTAYLQMNSLRAEDTAVYYCARFVFFLPYAMDYWGQGTLVTVSS VL: DIQMTQSPSSLSASVGDRVTITCRASQDVSTAVAWYQQKPGKAPKLLIYSASFLYSGVPSRFSGSGSGTDFTLTISSLQPEDFATYYCQQGYGNPFTFGQGTKVEIK
1.1 | 1.48 | 0.000379 | 257000 | G6.31 HC-A71E (Fab, name in Kabat numbering, V domains shown, Fab) VH: EVQLVESGGGLVQPGGSLRLSCAASGFTISDYWIHWVRQAPGKGLEWVAGITPAGGYTYYADSVKGRFTISEDTSKNTAYLQMNSLRAEDTAVYYCARFVFFLPYAMDYWGQGTLVTVSS VL: DIQMTQSPSSLSASVGDRVTITCRASQDVSTAVAWYQQKPGKAPKLLIYSASFLYSGVPSRFSGSGSGTDFTLTISSLQPEDFATYYCQQGYGNPFTFGQGTKVEIK
0.8 | 2.11 | 0.000499 | 236000 | G6.31 HC-S74E (Fab, name in Kabat numbering, V domains shown, Fab) VH: EVQLVESGGGLVQPGGSLRLSCAASGFTISDYWIHWVRQAPGKGLEWVAGITPAGGYTYYADSVKGRFTISADTEKNTAYLQMNSLRAEDTAVYYCARFVFFLPYAMDYWGQGTLVTVSS VL: DIQMTQSPSSLSASVGDRVTITCRASQDVSTAVAWYQQKPGKAPKLLIYSASFLYSGVPSRFSGSGSGTDFTLTISSLQPEDFATYYCQQGYGNPFTFGQGTKVEIK
1.3 | 1.27 | 0.000482 | 380000 | G6.31 HC-K43E (Fab, name in Kabat numbering, V domains shown, Fab) VH: EVQLVESGGGLVQPGGSLRLSCAASGFTISDYWIHWVRQAPGEGLEWVAGITPAGGYTYYADSVKGRFTISADTSKNTAYLQMNSLRAEDTAVYYCARFVFFLPYAMDYWGQGTLVTVSS VL: DIQMTQSPSSLSASVGDRVTITCRASQDVSTAVAWYQQKPGKAPKLLIYSASFLYSGVPSRFSGSGSGTDFTLTISSLQPEDFATYYCQQGYGNPFTFGQGTKVEIK
1.7 | 0.991 | 0.000433 | 437000 | G6.31 HC-S82bE (Fab, name in Kabat numbering, V domains shown, Fab) VH: EVQLVESGGGLVQPGGSLRLSCAASGFTISDYWIHWVRQAPGKGLEWVAGITPAGGYTYYADSVKGRFTISADTSKNTAYLQMNELRAEDTAVYYCARFVFFLPYAMDYWGQGTLVTVSS VL: DIQMTQSPSSLSASVGDRVTITCRASQDVSTAVAWYQQKPGKAPKLLIYSASFLYSGVPSRFSGSGSGTDFTLTISSLQPEDFATYYCQQGYGNPFTFGQGTKVEIK
2.2 | 0.788 | 0.000434 | 550000 | G6.31 HC-T73E (Fab, name in Kabat numbering, V domains shown, Fab) VH: EVQLVESGGGLVQPGGSLRLSCAASGFTISDYWIHWVRQAPGKGLEWVAGITPAGGYTYYADSVKGRFTISADESKNTAYLQMNSLRAEDTAVYYCARFVFFLPYAMDYWGQGTLVTVSS VL: DIQMTQSPSSLSASVGDRVTITCRASQDVSTAVAWYQQKPGKAPKLLIYSASFLYSGVPSRFSGSGSGTDFTLTISSLQPEDFATYYCQQGYGNPFTFGQGTKVEIK
1.8 | 0.97 | 0.000554 | 571000 | G6.31 HC-P41R (Fab, name in Kabat numbering, V domains shown, Fab) VH: EVQLVESGGGLVQPGGSLRLSCAASGFTISDYWIHWVRQARGKGLEWVAGITPAGGYTYYADSVKGRFTISADTSKNTAYLQMNSLRAEDTAVYYCARFVFFLPYAMDYWGQGTLVTVSS VL: DIQMTQSPSSLSASVGDRVTITCRASQDVSTAVAWYQQKPGKAPKLLIYSASFLYSGVPSRFSGSGSGTDFTLTISSLQPEDFATYYCQQGYGNPFTFGQGTKVEIK
3 | 0.566 | 0.000352 | 621000 | G6.31 HC-T28E (Fab, name in Kabat numbering, V domains shown, Fab) VH: EVQLVESGGGLVQPGGSLRLSCAASGFEISDYWIHWVRQAPGKGLEWVAGITPAGGYTYYADSVKGRFTISADTSKNTAYLQMNSLRAEDTAVYYCARFVFFLPYAMDYWGQGTLVTVSS VL: DIQMTQSPSSLSASVGDRVTITCRASQDVSTAVAWYQQKPGKAPKLLIYSASFLYSGVPSRFSGSGSGTDFTLTISSLQPEDFATYYCQQGYGNPFTFGQGTKVEIK
4 | 0.42 | 0.00041 | 975000 | G6.31 HC-T28K (Fab, name in Kabat numbering, V domains shown, Fab) VH: EVQLVESGGGLVQPGGSLRLSCAASGFKISDYWIHWVRQAPGKGLEWVAGITPAGGYTYYADSVKGRFTISADTSKNTAYLQMNSLRAEDTAVYYCARFVFFLPYAMDYWGQGTLVTVSS VL: DIQMTQSPSSLSASVGDRVTITCRASQDVSTAVAWYQQKPGKAPKLLIYSASFLYSGVPSRFSGSGSGTDFTLTISSLQPEDFATYYCQQGYGNPFTFGQGTKVEIK
0.5 | 3.6 | 0.000548 | 152000 | G6.31 HC-P41E (Fab, name in Kabat numbering, V domains shown, Fab) VH: EVQLVESGGGLVQPGGSLRLSCAASGFTISDYWIHWVRQAEGKGLEWVAGITPAGGYTYYADSVKGRFTISADTSKNTAYLQMNSLRAEDTAVYYCARFVFFLPYAMDYWGQGTLVTVSS VL: DIQMTQSPSSLSASVGDRVTITCRASQDVSTAVAWYQQKPGKAPKLLIYSASFLYSGVPSRFSGSGSGTDFTLTISSLQPEDFATYYCQQGYGNPFTFGQGTKVEIK
0.2 | 7.1 | 0.000558 | 78500 | G6.31 HC-S30E (Fab, name in Kabat numbering, V domains shown, Fab) VH: EVQLVESGGGLVQPGGSLRLSCAASGFTIEDYWIHWVRQAPGKGLEWVAGITPAGGYTYYADSVKGRFTISADTSKNTAYLQMNSLRAEDTAVYYCARFVFFLPYAMDYWGQGTLVTVSS VL: DIQMTQSPSSLSASVGDRVTITCRASQDVSTAVAWYQQKPGKAPKLLIYSASFLYSGVPSRFSGSGSGTDFTLTISSLQPEDFATYYCQQGYGNPFTFGQGTKVEIK
0.8 | 2.05 | 0.00044 | 215000 | G6.31 HC-T68E (Fab, name in Kabat numbering, V domains shown, Fab) VH: EVQLVESGGGLVQPGGSLRLSCAASGFTISDYWIHWVRQAPGKGLEWVAGITPAGGYTYYADSVKGRFEISADTSKNTAYLQMNSLRAEDTAVYYCARFVFFLPYAMDYWGQGTLVTVSS VL: DIQMTQSPSSLSASVGDRVTITCRASQDVSTAVAWYQQKPGKAPKLLIYSASFLYSGVPSRFSGSGSGTDFTLTISSLQPEDFATYYCQQGYGNPFTFGQGTKVEIK
0.8 | 2.2 | 0.000495 | 225000 | G6.31 HC-Q81E (Fab, name in Kabat numbering, V domains shown, Fab) VH: EVQLVESGGGLVQPGGSLRLSCAASGFTISDYWIHWVRQAPGKGLEWVAGITPAGGYTYYADSVKGRFTISADTSKNTAYLEMNSLRAEDTAVYYCARFVFFLPYAMDYWGQGTLVTVSS VL: DIQMTQSPSSLSASVGDRVTITCRASQDVSTAVAWYQQKPGKAPKLLIYSASFLYSGVPSRFSGSGSGTDFTLTISSLQPEDFATYYCQQGYGNPFTFGQGTKVEIK
1.3 | 1.29 | 0.000513 | 397000 | G6.31 HC-T68K (Fab, name in Kabat numbering, V domains shown, Fab) VH: EVQLVESGGGLVQPGGSLRLSCAASGFTISDYWIHWVRQAPGKGLEWVAGITPAGGYTYYADSVKGRFKISADTSKNTAYLQMNSLRAEDTAVYYCARFVFFLPYAMDYWGQGTLVTVSS VL: DIQMTQSPSSLSASVGDRVTITCRASQDVSTAVAWYQQKPGKAPKLLIYSASFLYSGVPSRFSGSGSGTDFTLTISSLQPEDFATYYCQQGYGNPFTFGQGTKVEIK
1 | 1.72 | 0.000467 | 271000 | G6.31 HC-N76E (Fab, name in Kabat numbering, V domains shown, Fab) VH: EVQLVESGGGLVQPGGSLRLSCAASGFTISDYWIHWVRQAPGKGLEWVAGITPAGGYTYYADSVKGRFTISADTSKETAYLQMNSLRAEDTAVYYCARFVFFLPYAMDYWGQGTLVTVSS VL: DIQMTQSPSSLSASVGDRVTITCRASQDVSTAVAWYQQKPGKAPKLLIYSASFLYSGVPSRFSGSGSGTDFTLTISSLQPEDFATYYCQQGYGNPFTFGQGTKVEIK
1.1 | 1.56 | 0.000472 | 302000 | G6.31 HC-G65E (Fab, name in Kabat numbering, V domains shown, Fab) VH: EVQLVESGGGLVQPGGSLRLSCAASGFTISDYWIHWVRQAPGKGLEWVAGITPAGGYTYYADSVKERFTISADTSKNTAYLQMNSLRAEDTAVYYCARFVFFLPYAMDYWGQGTLVTVSS VL: DIQMTQSPSSLSASVGDRVTITCRASQDVSTAVAWYQQKPGKAPKLLIYSASFLYSGVPSRFSGSGSGTDFTLTISSLQPEDFATYYCQQGYGNPFTFGQGTKVEIK
